We go through 6 molecules from patent US20030143692A1, “Methods and compositions for modulating integrin-mediated cell-cell interactions” (priority 2000, published 2003).

The subject of experiment [1] is ADAM 23 mediated adhesion of NB100 neuroblastoma cells. The experiment in a line: Inhibition of ADAM 23 mediated adhesion of NB100 cells. The experiment is classed as cell-based, human. To be noted: NB100 cells incubated with peptide (20 or 40 μg/ml) prior to seeding. The protocol: Cell adhesion assays were performed in accordance with procedures described by Luque et al. (FEBS Lett 1994 346:278-284). In these assays, 96-well immunoplates (MaxiSorp, Nunc, Denmark) were coated with 0.1 ml of PBS containing different amounts of BSA, glutathione S-transferase (GST), and ADAM 23/GST. After incubating 16 hours at 4° C., wells were blocked with DMEM containing 2.5% BSA, for 2 hours at 37° C. Then, NB100 neuroblastoma cells (approximately 50,000 cells per well) were added in Dulbecco's modified Eagle's medium (DMEM) supplemented with 1% BSA and incubated at 37° C. for 2 hours. For experiments directed to analyze the effect of divalent cations, the cells were washed three times in PBS, and resuspended in the same buffer supplemented either with 1 mM MgCl2, 50 μM MnCl2, 1 mM CaCl2, or 1 mM MgCl2 plus 5 mM EDTA. Non-bound cells were removed by rinsing the wells with serum-free medium, whereas bound cells were fixed with methanol and stained with Giemsa. Cells were counted per unit area with the aid of an inverted light microscope, using a 20× high powered objective and an ocular grid. […] In all cases, experimental treatments were performed in triplicate with a minimum of three areas counted per well.

The subject of experiment [2] is NB100 human neuroblastoma cells. The experiment in a line: Cell adhesion assay on coated wells, NB100 cells. It counts as cell-based. The settings on record: for cell adhesion to wells coated with the protein: bound cells stained and quantified. As to the method: Cell adhesion assays were performed in accordance with procedures described by Luque et al. (FEBS Lett 1994 346:278-284). In these assays, 96-well immunoplates (MaxiSorp, Nunc, Denmark) were coated with 0.1 ml of PBS containing different amounts of BSA, glutathione S-transferase (GST), and ADAM 23/GST. After incubating 16 hours at 4° C., wells were blocked with DMEM containing 2.5% BSA, for 2 hours at 37° C. Then, NB100 neuroblastoma cells (approximately 50,000 cells per well) were added in Dulbecco's modified Eagle's medium (DMEM) supplemented with 1% BSA and incubated at 37° C. for 2 hours. For experiments directed to analyze the effect of divalent cations, the cells were washed three times in PBS, and resuspended in the same buffer supplemented either with 1 mM MgCl2, 50 μM MnCl2, 1 mM CaCl2, or 1 mM MgCl2 plus 5 mM EDTA. Non-bound cells were removed by rinsing the wells with serum-free medium, whereas bound cells were fixed with methanol and stained with Giemsa. Cells were counted per unit area with the aid of an inverted light microscope, using a 20× high powered objective and an ocular grid. For inhibition studies cells were pretreated for 30 minutes before the addition to the coated wells of mAb LM 609 (used at 1:400 dilution of ascites) or synthetic peptides (20 or 40 μg/ml) corresponding to the disintegrin loop of ADAM 23 (AVNEDCDIT, peptide 330 (SEQ ID NO:1)) or a “scrambled” peptide (DCVTNIAE, peptide 331 (SEQ ID NO:4)). In all cases, experimental treatments were performed in triplicate with a minimum of three areas counted per well.

Another experiment has as its system endothelial cells. The experiment in a line: Murine MATRIGEL plug angiogenesis model. It counts as in vivo, female athymic (BALB/c nu/nu) mice. As to the method: The angiogenic activity of ADAM 23 was evaluated in the murine MATRIGEL plug angiogenesis model. On day 0, ice-cold MATRIGEL (Becton-Dickinson, Bedford, Mass.) containing either vascular endothelial growth factor (VEGF, Pepro Tech, Inc., Rocky Hill, N.J.), basic fibroblast growth factor (bFGF, Pepro Tech, Inc., Rocky Hill, N.J.), […], saline buffer (PBS) or recombinant ADAM 23 disintegrin domain (dd) expressed as a GST fusion protein (GST-ADAM23dd) was implanted subcutaneously in female athymic (BALB/c nu/nu; Harlan, Indianapolis, Ind.) mice. The MATRIGEL polymerized immediately after implantation into mice forming a gel plug. On day 7, individual MATRIGEL plugs were harvested, fixed in 10% buffered formalin, embedded in paraffin, sectioned, and stained with hematoxylin-eosin. The number of endothelial cells present in each plug section was measured using a video imaging system (Image Pro-Plus, Empire Imaging, Princeton, N.J.). Fifty fields (at 20×) per plug section were randomly counted. Data are presented as “Average Number of Migrating Cells” and the p-value was determined using a two-tailed Student T-Test.

The next experiment concerns the target T1, α5β1 (Homo sapiens, UniProt P05556+P08648).
T1 construct: purchased Chemicon International Inc., Temecula, Calif
The experiment is described as follows: Sepharose bead binding of purified integrin (SDS-PAGE / Western blot). The protocol: (§1) Purified integrins ([…] αvβ3, α1β1 or α5β1) (Chemicon International Inc., Temecula, Calif.) were incubated with Sepharose 4B beads containing 0.5 μg of disintegrin-GST, in a buffer containing 50 mM Tris-HCl, 200 mM NaCl and 0.2 mM MnCl2 (pH 7.4), for 4 hours at 37° C. After incubation, beads were washed six times with 200 μl of the same buffer to remove unbound protein. Beads were then resuspended in Laemmli buffer and after boiling, solubilized proteins were loaded in a 6% SDS-PAGE gel, and visualized by silver staining. Alternatively, samples were blotted to a nitrocellulose membrane and the presence of αv or β3 integrin subunits was detected using polyclonal antibodies raised against these subunits. Similarly, the putative presence of β1 integrin subunits was examined with the B3B11 monoclonal antibody (Chemicon International Inc.). Western-blots were visualized by enhanced chemiluminescence according to the manufacturer s instructions (ECL, Amersham).
On the technique in general: In western blotting, separated proteins are transferred to a membrane and probed.

The target in the next experiment is T2, αvβ3 integrin (Homo sapiens, UniProt P05106+P06756).
T2 construct: purchased Chemicon International Inc., Temecula, Calif
T2 sequence (P06756 31-889 limits assumed): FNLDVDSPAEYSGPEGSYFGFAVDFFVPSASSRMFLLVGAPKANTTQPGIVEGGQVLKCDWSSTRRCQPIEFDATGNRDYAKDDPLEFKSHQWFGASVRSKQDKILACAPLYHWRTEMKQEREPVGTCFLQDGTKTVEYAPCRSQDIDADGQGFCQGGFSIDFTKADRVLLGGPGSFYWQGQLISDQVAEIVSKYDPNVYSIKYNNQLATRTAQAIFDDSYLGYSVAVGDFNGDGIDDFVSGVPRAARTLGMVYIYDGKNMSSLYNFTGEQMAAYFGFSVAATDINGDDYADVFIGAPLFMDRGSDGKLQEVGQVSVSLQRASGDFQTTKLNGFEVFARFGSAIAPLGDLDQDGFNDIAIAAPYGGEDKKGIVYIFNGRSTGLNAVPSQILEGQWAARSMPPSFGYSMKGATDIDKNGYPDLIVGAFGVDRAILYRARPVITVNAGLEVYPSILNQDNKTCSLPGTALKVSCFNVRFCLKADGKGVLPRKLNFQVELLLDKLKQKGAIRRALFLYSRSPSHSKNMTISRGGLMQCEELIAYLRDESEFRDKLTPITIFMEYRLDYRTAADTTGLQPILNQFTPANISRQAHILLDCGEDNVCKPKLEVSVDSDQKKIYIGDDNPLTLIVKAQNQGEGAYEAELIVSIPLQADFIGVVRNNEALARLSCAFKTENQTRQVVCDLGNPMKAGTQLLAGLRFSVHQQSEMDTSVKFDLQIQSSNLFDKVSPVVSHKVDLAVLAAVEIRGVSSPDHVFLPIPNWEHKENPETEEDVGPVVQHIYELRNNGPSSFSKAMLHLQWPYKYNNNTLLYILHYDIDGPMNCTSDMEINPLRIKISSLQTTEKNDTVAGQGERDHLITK
T2 sequence (P06756 891-1048 partner limits assumed): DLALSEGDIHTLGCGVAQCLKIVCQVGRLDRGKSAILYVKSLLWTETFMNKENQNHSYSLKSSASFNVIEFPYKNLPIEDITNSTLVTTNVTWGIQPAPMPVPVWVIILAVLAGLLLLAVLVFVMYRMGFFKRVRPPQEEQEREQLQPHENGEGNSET
T2 sequence (P05106 27-788): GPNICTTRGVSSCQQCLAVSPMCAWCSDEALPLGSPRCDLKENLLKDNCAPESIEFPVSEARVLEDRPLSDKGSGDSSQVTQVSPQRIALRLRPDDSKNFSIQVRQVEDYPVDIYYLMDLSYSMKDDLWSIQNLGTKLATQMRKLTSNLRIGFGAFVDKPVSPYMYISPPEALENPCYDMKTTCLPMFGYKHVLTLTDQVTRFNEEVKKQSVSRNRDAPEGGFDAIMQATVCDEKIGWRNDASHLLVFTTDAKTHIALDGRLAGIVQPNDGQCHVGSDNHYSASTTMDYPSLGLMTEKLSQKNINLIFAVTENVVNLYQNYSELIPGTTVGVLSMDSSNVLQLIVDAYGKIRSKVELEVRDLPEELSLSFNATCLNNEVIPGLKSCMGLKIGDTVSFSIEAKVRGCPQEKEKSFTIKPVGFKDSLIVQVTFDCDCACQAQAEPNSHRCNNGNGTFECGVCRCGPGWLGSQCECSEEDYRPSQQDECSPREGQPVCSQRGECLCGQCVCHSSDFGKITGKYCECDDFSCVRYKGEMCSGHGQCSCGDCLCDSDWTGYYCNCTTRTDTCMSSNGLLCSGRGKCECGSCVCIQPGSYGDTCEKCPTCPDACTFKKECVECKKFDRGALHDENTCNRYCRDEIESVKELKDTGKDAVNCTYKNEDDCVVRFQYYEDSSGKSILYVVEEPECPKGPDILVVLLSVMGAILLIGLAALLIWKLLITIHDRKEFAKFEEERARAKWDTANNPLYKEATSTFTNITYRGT
Described as above. To be noted: confirmed by Western blot. As to the method: as §1

The target in the next experiment is T3, α1β1 (Homo sapiens, UniProt P05556+P56199).
T3 construct: purchased Chemicon International Inc., Temecula, Calif
T3 sequence (P56199 29-1179): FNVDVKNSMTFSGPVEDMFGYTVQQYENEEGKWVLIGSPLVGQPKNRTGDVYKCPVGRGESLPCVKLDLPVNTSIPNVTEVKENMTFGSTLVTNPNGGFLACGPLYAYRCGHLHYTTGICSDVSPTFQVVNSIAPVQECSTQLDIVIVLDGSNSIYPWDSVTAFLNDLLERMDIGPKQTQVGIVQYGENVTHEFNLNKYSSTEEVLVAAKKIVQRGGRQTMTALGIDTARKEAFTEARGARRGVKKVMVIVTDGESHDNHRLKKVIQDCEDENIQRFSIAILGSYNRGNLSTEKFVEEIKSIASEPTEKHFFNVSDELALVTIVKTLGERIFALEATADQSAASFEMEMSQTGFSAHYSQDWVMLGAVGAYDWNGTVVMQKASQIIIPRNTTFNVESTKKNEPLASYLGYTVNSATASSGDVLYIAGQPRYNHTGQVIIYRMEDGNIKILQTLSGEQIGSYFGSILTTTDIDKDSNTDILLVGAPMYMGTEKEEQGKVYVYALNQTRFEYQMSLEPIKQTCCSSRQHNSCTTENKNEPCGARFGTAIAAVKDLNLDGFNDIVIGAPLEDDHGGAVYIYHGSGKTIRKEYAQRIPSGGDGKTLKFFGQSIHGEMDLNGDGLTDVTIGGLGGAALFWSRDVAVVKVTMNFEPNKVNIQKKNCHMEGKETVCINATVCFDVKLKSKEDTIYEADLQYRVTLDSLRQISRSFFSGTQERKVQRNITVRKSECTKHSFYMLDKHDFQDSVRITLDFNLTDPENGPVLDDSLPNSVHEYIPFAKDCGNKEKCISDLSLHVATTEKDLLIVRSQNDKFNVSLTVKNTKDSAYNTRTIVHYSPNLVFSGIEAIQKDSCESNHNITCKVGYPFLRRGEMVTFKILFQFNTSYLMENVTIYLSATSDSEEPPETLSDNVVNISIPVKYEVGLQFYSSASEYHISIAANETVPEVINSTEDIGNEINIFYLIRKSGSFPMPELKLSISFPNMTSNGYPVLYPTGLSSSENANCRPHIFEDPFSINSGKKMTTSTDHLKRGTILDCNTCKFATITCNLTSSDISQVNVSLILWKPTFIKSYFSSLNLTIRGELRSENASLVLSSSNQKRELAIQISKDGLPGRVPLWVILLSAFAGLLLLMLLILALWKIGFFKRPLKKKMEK
T3 sequence (P05556 21-798): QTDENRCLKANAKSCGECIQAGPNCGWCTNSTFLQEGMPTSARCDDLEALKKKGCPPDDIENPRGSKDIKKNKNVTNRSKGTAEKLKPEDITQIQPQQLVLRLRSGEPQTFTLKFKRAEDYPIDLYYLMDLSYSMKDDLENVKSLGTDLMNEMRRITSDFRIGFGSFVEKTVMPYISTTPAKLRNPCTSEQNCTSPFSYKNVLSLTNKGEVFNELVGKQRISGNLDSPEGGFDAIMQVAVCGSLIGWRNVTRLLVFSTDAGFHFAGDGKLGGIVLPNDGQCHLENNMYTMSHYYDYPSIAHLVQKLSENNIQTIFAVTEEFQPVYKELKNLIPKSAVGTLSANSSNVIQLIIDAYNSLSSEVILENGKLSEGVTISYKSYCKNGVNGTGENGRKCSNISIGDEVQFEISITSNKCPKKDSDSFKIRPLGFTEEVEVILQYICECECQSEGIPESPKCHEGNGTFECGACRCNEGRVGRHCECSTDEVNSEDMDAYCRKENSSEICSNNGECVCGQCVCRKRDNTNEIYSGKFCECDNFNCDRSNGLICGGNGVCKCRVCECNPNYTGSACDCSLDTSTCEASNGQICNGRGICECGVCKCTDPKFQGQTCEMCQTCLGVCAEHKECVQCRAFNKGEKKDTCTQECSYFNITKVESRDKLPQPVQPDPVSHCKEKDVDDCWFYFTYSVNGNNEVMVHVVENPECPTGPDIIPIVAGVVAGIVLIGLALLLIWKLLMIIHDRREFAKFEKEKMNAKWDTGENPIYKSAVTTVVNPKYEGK
The description is as above. The protocol:
as §1

A further experiment deals with HeLa. The experiment is described as follows: Cell adhesion assay on coated wells, HeLa cells. It counts as cell-based.
For another experiment, the system named is T47D. The experiment is described as follows: Cell adhesion assay on coated wells, T47D cells. It counts as cell-based.
The subject of the next experiment is HT1080. The experiment in a line: Cell adhesion assay on coated wells, HT1080 cells. The experiment is classed as cell-based.

T1 sequence (P08648 42-894 limits assumed): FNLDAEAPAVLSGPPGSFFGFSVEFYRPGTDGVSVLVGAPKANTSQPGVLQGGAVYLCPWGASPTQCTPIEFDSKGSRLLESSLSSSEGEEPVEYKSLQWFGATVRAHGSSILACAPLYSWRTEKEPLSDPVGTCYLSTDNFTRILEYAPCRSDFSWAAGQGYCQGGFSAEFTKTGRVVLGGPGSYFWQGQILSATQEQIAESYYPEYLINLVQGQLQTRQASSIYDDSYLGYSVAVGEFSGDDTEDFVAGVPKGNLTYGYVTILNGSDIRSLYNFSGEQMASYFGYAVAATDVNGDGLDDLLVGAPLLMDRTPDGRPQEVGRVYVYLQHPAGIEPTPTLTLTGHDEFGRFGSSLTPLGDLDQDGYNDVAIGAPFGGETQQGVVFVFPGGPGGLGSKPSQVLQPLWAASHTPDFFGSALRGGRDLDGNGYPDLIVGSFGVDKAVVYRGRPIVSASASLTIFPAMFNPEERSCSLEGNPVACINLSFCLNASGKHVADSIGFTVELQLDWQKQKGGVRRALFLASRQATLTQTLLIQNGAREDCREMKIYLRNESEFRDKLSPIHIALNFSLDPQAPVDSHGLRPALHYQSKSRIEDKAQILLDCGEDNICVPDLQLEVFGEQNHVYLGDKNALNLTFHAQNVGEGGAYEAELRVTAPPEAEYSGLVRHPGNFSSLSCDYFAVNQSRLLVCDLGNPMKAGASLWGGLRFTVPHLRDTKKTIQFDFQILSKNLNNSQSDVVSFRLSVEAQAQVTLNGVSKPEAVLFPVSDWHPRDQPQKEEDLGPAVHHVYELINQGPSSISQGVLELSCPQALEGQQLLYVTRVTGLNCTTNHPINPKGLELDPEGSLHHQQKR
T1 sequence (P08648 895-1049 partner limits assumed): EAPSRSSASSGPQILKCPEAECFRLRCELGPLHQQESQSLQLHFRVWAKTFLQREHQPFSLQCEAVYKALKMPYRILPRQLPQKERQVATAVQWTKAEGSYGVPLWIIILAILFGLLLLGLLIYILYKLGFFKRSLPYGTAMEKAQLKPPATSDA
T1 sequence (P05556 21-798): as the sequence (P05556 21-798) above

As to AVNECDIT [pep330], the “effect of peptide on adherent cells on plates containing ADAM 23” value in experiment [1] is “significant loss of adherent cells”.
Take DCVTNIAE [pep331, reference compound]: the “effect of peptide on adherent cells on plates containing ADAM 23” value in experiment [1] is listed as “this effect was not observed”.
With “GST: glutathione S-transferase, control protein for the fusion protein [reference compound]”, the “cell adhesion to wells coated with the protein” value (from here on “cell adhesion to wells coated”) in experiment [2] was “did not support any significant cell adhesion”. The “angiogenic response (cells in MATRIGEL plug sections)” value with endothelial cells (subcutaneous plug, harvested day 7) was “a significant number of cells was not observed”.
On to “albumin: albumin used as control coating of wells [reference compound]”, for which the “cell adhesion to wells coated” value in experiment [2] is “did not support any significant cell adhesion”.
Consider fibronectin [reference compound], for which the “cell adhesion to wells coated” value in experiment [2] was “promoted cell adhesion”.

B1: ADAM 23-GST: recombinant ADAM 23 disintegrin domain expressed as a GST fusion protein in E. coli, about 40 kDa (protein)
chain: KLFEPTECGNGYVEAGEECDCGFHVECYGLCCKKCSLSNGAHCSDGPCCNNTSCLFQPRGYECRDAVNECDITEYCTGDSGQCPPNLHKQD
modifications: left off: a dimerising Fc or GST
notes: recombinant ADAM 23 disintegrin domain expressed as a GST fusion protein in E. coli, about 40 kDa
With B1, the “interaction with purified integrin” value in the experiment with α5β1 and with α1β1 was “did not reveal any evidence of interaction” throughout. In addition, the “bound αvβ3 integrin (αv and β3 bands) on protein-containing beads” value with αvβ3 integrin is given as “detected”. For the same molecule, the “ADAM 23-mediated adhesion” value in the experiment with HeLa, with T47D and in the experiment with HT1080 was “no significant ADAM 23-mediated adhesion” in each case. The “dose dependence of ADAM 23-promoted cell adhesiveness” value in [2] is on record as “dose-dependent”. The “attachment of cells in the presence of divalent cations” value in [2] (Mn2+ and Mg2+) is recorded as “stimulated”. The “cell adhesion to wells coated” value in experiment [2] is given as “promoted cell adhesion”. The “dose dependence of angiogenic response” value with endothelial cells (4, 20.5 or 61.5 μg/plug, day 7) is reported as “dose-dependent”. The “cell types in plug sections (microscopic histologic analyses)” value in the experiment on endothelial cells (day 7, hematoxylin-eosin) is “both endothelial and smooth muscle cells were present”.
